# Test results: paper PMC7206793 (Science (New York, N.Y.), 2019)
# T1: β-catenin (on the human protein microarray) (human, UniProt P35222 1-781)
# T1 sequence (looked up): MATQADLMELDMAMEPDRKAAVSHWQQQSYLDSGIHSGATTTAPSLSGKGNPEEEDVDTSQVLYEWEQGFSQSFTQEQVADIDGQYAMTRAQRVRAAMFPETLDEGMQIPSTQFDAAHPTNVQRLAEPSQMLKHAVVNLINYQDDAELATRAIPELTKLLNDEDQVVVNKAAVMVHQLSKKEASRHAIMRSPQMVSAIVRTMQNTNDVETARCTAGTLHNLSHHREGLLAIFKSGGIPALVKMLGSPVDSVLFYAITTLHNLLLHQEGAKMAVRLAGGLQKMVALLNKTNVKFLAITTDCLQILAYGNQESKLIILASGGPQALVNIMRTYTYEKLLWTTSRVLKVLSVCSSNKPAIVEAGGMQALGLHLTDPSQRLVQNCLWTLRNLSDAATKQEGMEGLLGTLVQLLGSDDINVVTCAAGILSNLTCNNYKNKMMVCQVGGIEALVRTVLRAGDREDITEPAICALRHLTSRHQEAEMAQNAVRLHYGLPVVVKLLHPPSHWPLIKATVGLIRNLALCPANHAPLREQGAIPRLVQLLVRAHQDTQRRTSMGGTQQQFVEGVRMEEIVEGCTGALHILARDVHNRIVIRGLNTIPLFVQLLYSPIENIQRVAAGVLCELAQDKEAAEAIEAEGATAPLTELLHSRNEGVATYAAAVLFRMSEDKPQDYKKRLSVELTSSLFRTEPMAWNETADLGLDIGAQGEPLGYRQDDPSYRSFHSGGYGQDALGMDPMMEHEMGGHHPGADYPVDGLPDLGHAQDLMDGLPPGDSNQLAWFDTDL
# B1: Flag (N-terminus)- and V5 (C-terminus)-tagged recombinant human Lmbr1l protein (natural protein, UniProt Q6UX01 1-489, looked up)
# chain: MEAPDYEVLSVREQLFHERIRECIISTLLFATLYILCHIFLTRFKKPAEFTTVDDEDATVNKIALELCTFTLAIALGAVLLLPFSIISNEVLLSLPRNYYIQWLNGSLIHGLWNLVFLFSNLSLIFLMPFAYFFTESEGFAGSRKGVLGRVYETVVMLMLLTLLVLGMVWVASAIVDKNKANRESLYDFWEYYLPYLYSCISFLGVLLLLVCTPLGLARMFSVTGKLLVKPRLLEDLEEQLYCSAFEEAALTRRICNPTSCWLPLDMELLHRQVLALQTQRVLLEKRRKASAWQRNLGYPLAMLCLLVLTGLSVLIVAIHILELLIDEAAMPRGMQGTSLGQVSFSKLGSFGAVIQVVLIFYLMVSSVVGFYSSPLFRSLRPRWHDTAMTQIIGNCVCLLVLSSALPVFSRTLGLTRFDLLGDFGRFNWLGNFYIVFLYNAAFAGLTTLCLVKTFTAAVRAELIRAFGLDRLPLPVSGFPQASRKTQHQ
# Legend:
# [1] = target: T1, β-catenin (on the human protein …); test: peptide or protein array
# [2] = target: B1; test: peptide or protein array
binding result [1],binding result [2],Binder
binds,,B1
,binds,"casein kinase 1 ε (on the human protein microarray) (natural protein, UniProt P49674 1-416, looked up) MELRVGNKYRLGRKIGSGSFGDIYLGANIASGEEVAIKLECVKTKHPQLHIESKFYKMMQGGVGIPSIKWCGAEGDYNVMVMELLGPSLEDLFNFCSRKFSLKTVLLLADQMISRIEYIHSKNFIHRDVKPDNFLMGLGKKGNLVYIIDFGLAKKYRDARTHQHIPYRENKNLTGTARYASINTHLGIEQSRRDDLESLGYVLMYFNLGSLPWQGLKAATKRQKYERISEKKMSTPIEVLCKGYPSEFSTYLNFCRSLRFDDKPDYSYLRQLFRNLFHRQGFSYDYVFDWNMLKFGAARNPEDVDRERREHEREERMGQLRGSATRALPPGPPTGATANRLRSAAEPVASTPASRIQPAGNTSPRAISRVDRERKVSMRLHRGAPANVSSSDLTGRQEVSRIPASQTSVPFDHLGK"
